B1: TPR t1 (parent)
chain: GACCAAUCUGCCCUCAGAGCUCGAGAACAUCUUCGGAUGCAGAGGAGGCAGGCUUCGGUGGCGCGAUAGCGCCAACGUCCUCAACCUCCAAUGCAUCCCACCACAUGAUGAUGCCUGAAGAGCCUUGGUUUUUUG

Variants of: B1
Assay: polymerase ribozyme fitness, log enrichment relative to wild type (log ratio); higher = more active; in vitro selection for triplet polymerase activity
Procedure, shortened: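 The heterodimeric triplet polymerase ribozyme's subunits were each mutagenized into PCR-built libraries and transcribed. Every library was selected once, in triplicate, by annealing with a biotinylated primer, the partner subunit and triplets, incubating frozen at −7 °C, gel-excising extended constructs, capturing on streptavidin beads and running RT-PCR. Input and output libraries were Illumina-sequenced, with genotypes kept only at ≥10 input reads and ≥1 read per output. Fitness, from inverse-variance-weighted replicate averages, is the base-2 logarithm of genotype enrichment over wild-type enrichment.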

Variant | polymerase ribozyme fitness (log ratio)
C8U C22A C62U | -4.04
G63C U126G | -1.74
U55A C79U C97U C115U G127C | -3.52
A43G A46U G63U U87A U92G G120C U130C | -6
C20A U112G | -1.72
G10U A83U | -0.308
U14A G19U U32G U81G A100G G120C | -7.12
A43C C70A C94U | -6.65
G35U U112A | -2.86
C89A G117A | -1.73
A6G C34A | -2.05
C62A C101A C114A | -3.81
C13U G45C C73U C123A | 0.429
A37C C56G C101A G110U G127U | -4.67
C20A G122A | -3.47
G39U C73U | -1.52
U9G A46U A91C G117A | -1.93
A43C G61C U112A | -5.07
C20G C53G C72U | -3.94
C88U A100U G120A | -0.615
C28A C72U C123U | -3.7

Variant | polymerase ribozyme fitness (log ratio)
G45U G63U | -2.05
U33C G52A G58C G69A C104U U109A A111G U112A | -6.93
C97U A119U C123A | -1.43
C82G A84G | -0.89
G36U C101A | -2.53
C34G C89U | -7.42
G69C U78C A84C | -2.73
G57U | -0.128
G19C G45A U78C C82G U112C | -1.42
G127U U132C | -0.0869
C13G G48C G63U A105C | -5.9
U7C G47A G69U C72A C102G | -4.77
A66G U109A | -6.35
G69U U116A | -1.65
G48A G135U | -1.08
U78G C114G U129A | -4.16
U59A C101A C114A | -2.95
A43U G61U | -2.41
C11G A24G C40U A90G U131A | -2.57
U14G C49G | -2.23
G48A C85G U106C | -1.25

Variant | polymerase ribozyme fitness (log ratio)
C12G A29U G39U U55G | -2.45
A6U G17C | -4.25
G19A C40U G45C G61C C124A | -3.57
G51A A84C | -2.3
G60A U78A U92C | -1.57
G51C C85G | -4.34
C15G A46G G71A C88G | -5.35
C11U C97U | -1.74
A5U C102U G122A | -3.47
G17A A95U | -3.81
C98A G120A | -3.18
A18C G36U | -4.02
C56G G57U G63U | -3.14
A41C C70A A118G | -3.8
G17C A46G C124A | -1.43
G45U U92A | -3.79
G69A C123A | -1.81
C22G G61A C86U C123A | -4.09
A46U C56A C115U | -2.68
C82U A95G | 0.358
A50U A111G | -0.837

Variant | polymerase ribozyme fitness (log ratio)
A27G A83G C86U | -2.33
C89G U126A | -2.85
U7A G60U C104A U125A | -1.13
C3A C49A A75U C123U | 0.0976
U78C G93A U112C G128U | -1.32
A2C C3U | -1.71
G47A G58U G110U G120A | -3.22
C13U G117U | -2.13
C73U C88U U92G | -2.64
U7A U55G | -0.938
A46C C53A C72A C86A C124G | 0.771
C3A U38A A121C U129A | -0.064
A27U C53U G77A | -3.79
G48U U78C U92A A105U A121U | -5.76
C12U C49U G77A C97A C98A U109A A119U G127C | -6.68
C8G C34G C88U U112C G113A | -6.08
C49A C62U A66G | -1.75
U7G U32A G39U G127C U130C | -5.02
C11G G19A G47C G48A | -3.86
G63C U116C | -1.29

Source: the RNAGym collection of RNA variant scans (doi:10.1073/pnas.2313332121)
